{"source": "paper PMC7672443", "about": "“Structural basis of the XPB helicase–Bax1 nuclease complex interacting with the repair bubble DNA” (Nucleic Acids Research, 2020)", "binders": {"B1": {"name": "forked DNA (dsDNA)", "DNA 1": "TAGTCACAGCTGATTGCGCTCTGCTCCATAGT", "DNA 2": "TGATACTTCGAGAGCGCAATCAGCTGTGACTA"}, "B2": {"name": "bubble-5 DNA (dsDNA)", "DNA 1": "TAGTCACAGCTGATTTTTCTCTGCTCCATAGT", "DNA 2": "ACTATGGAGCAGAGTTTTTTCAGCTGTGACTA"}, "B3": {"name": "bubble-6 DNA (crystal) (dsDNA)", "DNA 1": "TTGACTCAACATCCTTTGCTACAA", "DNA 2": "ATTGTAGGTTTCCATGTTGAGTCA"}}, "key": {"[1]": {"biological_target": "T1, StXPB;StBax1ΔC (Sulfurisphaera tokodaii;Sulfurisphaera …, UniProt Q970I2;Q970I1 2-439;2-373, |)", "T1 sequence 1": "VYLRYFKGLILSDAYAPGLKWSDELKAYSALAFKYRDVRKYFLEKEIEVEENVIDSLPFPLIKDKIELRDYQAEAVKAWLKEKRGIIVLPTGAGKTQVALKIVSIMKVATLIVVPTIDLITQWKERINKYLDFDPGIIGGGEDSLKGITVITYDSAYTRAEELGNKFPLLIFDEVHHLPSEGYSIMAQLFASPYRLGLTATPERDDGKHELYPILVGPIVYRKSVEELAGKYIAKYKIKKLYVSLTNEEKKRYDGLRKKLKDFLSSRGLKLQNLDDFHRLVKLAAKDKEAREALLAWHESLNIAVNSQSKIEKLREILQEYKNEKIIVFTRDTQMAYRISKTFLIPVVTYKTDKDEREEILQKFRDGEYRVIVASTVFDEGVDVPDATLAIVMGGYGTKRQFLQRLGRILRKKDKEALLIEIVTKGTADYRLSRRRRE", "T1 sequence 2": "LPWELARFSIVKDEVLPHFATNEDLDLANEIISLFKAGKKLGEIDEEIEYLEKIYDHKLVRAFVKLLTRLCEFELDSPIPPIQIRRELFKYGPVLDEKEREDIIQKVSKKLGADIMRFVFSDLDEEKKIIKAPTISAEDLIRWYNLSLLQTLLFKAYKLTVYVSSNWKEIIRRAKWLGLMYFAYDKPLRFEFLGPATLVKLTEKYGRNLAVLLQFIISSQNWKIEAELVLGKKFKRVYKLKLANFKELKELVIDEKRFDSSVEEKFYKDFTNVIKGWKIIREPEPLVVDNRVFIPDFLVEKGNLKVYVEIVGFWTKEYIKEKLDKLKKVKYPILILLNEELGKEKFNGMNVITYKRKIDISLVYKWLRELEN", "assay": "EMSA; EMSA: 25 mM Tris-Cl pH 7.5, 100 mM NaCl, 5% glycerol, 1 mM DTT, room temperature 40 min; 0.8 uM forked DNA or 0.3 uM bubble DNA; 4% TBE native gel, ethidium bromide", "settings": "protein: recombinant;recombinant; tags: N-terminal His8 (PreScission; removed);none stated (pET15b; copurified with His8-XPB); copies: 1;1; fork: 22 bp duplex, 10 nt arms"}, "[2]": {"biological_target": "T2, StXPB;StBax1 (Sulfurisphaera tokodaii;Sulfurisphaera …, UniProt Q970I2;Q970I1 2-439;1-481, |)", "T2 sequence 1": "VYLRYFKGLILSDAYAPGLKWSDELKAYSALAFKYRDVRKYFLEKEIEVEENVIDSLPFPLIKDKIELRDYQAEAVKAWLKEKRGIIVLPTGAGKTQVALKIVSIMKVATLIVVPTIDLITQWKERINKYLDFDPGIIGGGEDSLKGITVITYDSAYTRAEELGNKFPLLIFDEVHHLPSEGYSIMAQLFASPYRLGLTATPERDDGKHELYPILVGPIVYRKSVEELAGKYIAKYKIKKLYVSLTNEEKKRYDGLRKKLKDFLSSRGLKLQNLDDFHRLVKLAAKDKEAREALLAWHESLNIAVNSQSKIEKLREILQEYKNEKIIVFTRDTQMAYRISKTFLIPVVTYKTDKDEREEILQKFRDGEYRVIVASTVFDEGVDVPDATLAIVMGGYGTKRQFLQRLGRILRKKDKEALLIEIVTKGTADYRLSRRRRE", "T2 sequence 2": "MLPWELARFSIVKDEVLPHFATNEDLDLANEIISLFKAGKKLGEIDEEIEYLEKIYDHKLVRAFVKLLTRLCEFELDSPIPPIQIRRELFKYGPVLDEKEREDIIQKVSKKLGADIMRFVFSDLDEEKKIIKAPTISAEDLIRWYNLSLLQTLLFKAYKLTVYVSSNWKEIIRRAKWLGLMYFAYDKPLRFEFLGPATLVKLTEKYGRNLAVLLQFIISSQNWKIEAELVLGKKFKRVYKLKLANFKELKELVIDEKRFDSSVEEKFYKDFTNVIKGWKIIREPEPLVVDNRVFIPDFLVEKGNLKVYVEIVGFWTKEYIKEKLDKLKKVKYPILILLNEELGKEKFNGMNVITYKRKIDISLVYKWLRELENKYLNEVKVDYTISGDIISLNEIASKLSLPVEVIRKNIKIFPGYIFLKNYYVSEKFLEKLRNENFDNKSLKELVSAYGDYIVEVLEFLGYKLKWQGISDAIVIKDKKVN", "assay": "EMSA; EMSA: 25 mM Tris-Cl pH 7.5, 100 mM NaCl, 5% glycerol, 1 mM DTT, room temperature 40 min; 0.8 uM forked DNA or 0.3 uM bubble DNA; 4% TBE native gel, ethidium bromide", "settings": "protein: recombinant;recombinant; tags: N-terminal His8 (PreScission; removed);; copies: 1;1; fork: 22 bp duplex, 10 nt arms"}, "[3]": {"biological_target": "human XPB;human p52;human p8;human XPA (human;human;human;human, UniProt P19447;Q92759;Q6ZYL4;P23025 1-782;1-462;1-71;1-273, |||)", "sequence (P19447 whole entry, chain 1 of 4)": "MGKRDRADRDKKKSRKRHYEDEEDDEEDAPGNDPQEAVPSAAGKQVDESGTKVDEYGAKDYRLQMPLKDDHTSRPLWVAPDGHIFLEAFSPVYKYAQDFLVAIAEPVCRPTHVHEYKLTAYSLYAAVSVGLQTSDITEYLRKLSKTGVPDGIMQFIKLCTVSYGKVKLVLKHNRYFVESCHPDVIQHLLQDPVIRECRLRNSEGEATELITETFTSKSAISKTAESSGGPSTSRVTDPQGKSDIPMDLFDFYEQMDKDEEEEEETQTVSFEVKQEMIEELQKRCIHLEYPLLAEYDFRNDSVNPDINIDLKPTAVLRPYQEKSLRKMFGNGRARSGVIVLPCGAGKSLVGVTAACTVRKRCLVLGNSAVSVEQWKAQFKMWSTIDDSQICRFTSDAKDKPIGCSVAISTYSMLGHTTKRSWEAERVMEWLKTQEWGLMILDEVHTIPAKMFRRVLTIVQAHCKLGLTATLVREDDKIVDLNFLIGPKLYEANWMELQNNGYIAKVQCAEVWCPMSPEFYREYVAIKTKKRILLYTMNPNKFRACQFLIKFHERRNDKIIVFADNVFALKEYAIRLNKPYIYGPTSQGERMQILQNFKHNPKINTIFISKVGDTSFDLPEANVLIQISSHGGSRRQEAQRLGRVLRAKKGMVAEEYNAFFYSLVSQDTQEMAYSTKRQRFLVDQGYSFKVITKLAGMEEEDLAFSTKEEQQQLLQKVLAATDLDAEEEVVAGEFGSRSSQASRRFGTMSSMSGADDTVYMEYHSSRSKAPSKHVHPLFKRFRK", "sequence (Q92759 whole entry, chain 2 of 4)": "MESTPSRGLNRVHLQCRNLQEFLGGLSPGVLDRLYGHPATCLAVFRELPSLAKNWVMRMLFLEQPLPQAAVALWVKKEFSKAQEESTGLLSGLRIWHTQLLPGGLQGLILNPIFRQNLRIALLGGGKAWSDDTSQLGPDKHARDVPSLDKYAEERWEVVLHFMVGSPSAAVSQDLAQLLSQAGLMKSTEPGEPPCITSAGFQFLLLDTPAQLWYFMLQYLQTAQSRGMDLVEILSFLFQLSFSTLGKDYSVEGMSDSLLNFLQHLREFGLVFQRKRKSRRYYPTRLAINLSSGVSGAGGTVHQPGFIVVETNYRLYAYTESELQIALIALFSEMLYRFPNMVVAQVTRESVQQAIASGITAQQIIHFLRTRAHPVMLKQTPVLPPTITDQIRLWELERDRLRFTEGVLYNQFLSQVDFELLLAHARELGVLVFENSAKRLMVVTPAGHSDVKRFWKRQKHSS", "sequence (Q6ZYL4 whole entry, chain 3 of 4)": "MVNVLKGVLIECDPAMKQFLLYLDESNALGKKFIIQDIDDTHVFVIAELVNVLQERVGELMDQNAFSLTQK", "sequence (P23025 whole entry, chain 4 of 4)": "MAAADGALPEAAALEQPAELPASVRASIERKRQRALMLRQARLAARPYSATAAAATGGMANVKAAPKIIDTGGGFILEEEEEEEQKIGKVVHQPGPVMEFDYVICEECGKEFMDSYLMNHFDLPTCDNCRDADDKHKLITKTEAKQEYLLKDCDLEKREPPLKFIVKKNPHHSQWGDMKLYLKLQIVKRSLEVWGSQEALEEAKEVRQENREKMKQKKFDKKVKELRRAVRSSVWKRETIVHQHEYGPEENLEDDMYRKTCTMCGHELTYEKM", "assay": "EMSA; stable complex; EMSA: 25 mM Tris-Cl pH 7.5, 100 mM NaCl, 5% glycerol, 1 mM DTT, room temperature 40 min; 0.8 uM forked DNA or 0.3 uM bubble DNA; 4% TBE native gel, ethidium bromide", "settings": "protein: recombinant;recombinant;recombinant;recombinant; tags: N-terminal His6 (PreScission; removed);;;N-terminal His6-SUMO (removed); copies: 1;1;1;1; fork: 22 bp duplex, 10 nt arms"}, "[4]": {"biological_target": "T3, StXPB F278A (Sulfurisphaera tokodaii, UniProt Q970I2 2-439, F278A)", "T3 sequence": "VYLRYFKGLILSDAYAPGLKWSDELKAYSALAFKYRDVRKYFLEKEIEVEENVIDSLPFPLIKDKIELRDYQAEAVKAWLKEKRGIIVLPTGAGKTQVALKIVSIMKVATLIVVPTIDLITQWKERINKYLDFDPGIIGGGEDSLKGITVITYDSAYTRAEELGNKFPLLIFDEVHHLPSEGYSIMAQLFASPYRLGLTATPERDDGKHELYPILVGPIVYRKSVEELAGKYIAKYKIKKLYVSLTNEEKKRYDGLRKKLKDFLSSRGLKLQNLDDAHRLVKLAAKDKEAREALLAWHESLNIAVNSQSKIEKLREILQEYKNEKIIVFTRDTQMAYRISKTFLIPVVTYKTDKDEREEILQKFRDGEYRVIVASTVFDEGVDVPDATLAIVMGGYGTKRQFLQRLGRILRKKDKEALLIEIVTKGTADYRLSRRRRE", "assay": "EMSA; no noticeable effect versus WT; EMSA: 25 mM Tris-Cl pH 7.5, 100 mM NaCl, 5% glycerol, 1 mM DTT, room temperature 40 min; 0.8 uM forked DNA or 0.3 uM bubble DNA; 4% TBE native gel, ethidium bromide", "settings": "protein: recombinant; tags: N-terminal His8 (removed); 32 nt strands, blunt, internal 5 nt T:T mismatch bubble"}, "[5]": {"biological_target": "T1, StXPB;StBax1ΔC", "assay": "crystal structure 3.55 Å; 10 mM MgCl2, MES pH 5.3, MPD; ATP-free; EMSA: 25 mM Tris-Cl pH 7.5, 100 mM NaCl, 5% glycerol, 1 mM DTT, room temperature 40 min; 0.8 uM forked DNA or 0.3 uM bubble DNA; 4% TBE native gel, ethidium bromide", "settings": "protein: recombinant;recombinant; tags: N-terminal His8 (PreScission; removed);none stated (pET15b; copurified with His8-XPB); copies: 1;1; 24 bp with 6 nt unpaired region; 6 bp short arm unwound in crystal"}}, "data": [{"binder": "B1", "values": [{"measurement": "binding result", "setting": "[1]", "result": "binds"}, {"measurement": "binding result", "setting": "[2]", "result": "binds"}, {"measurement": "binding result", "setting": "[3]", "result": "binds"}]}, {"binder": "B2", "values": [{"measurement": "binding result", "setting": "[4]", "result": "binds"}]}, {"binder": "B3", "values": [{"measurement": "binding result", "setting": "[5]", "result": "binds"}]}]}
